Reference: PMC6321396

How the values were obtained:
[1] = molecular target: ApHt_20, IsCT-like antimicrobial venom peptide from Mesobuthus martensii Karsch (Mesobuthus martensii Karsch)
[2] = molecular target: ApHt_20, IsCT-like antimicrobial venom peptide from Mesobuthus martensii Karsch (Mesobuthus martensii Karsch); remark: listed apart in the source

HAP-1, short-chain highly acidic peptide from Mesobuthus martensii Karsch
agar diffusion assay against Staphylococcus aureus AB94004: minimum concentration of HAP-1 required to completely inhibit the inhibition zone made by 40 nM ApHt 20 [1]: 140 nM | MIC of ApHt 20 against Staphylococcus aureus AB94004 in the presence of 32 μM HAP-1 (8 μM without HAP-1) [2]: 16 µM
